Reference: US20190177423A1

Tests used:
[1] = target: FcγRIIIa(V158) (Sino Biological Inc, 10389-H08C1) (UniProt P08637); assay: Binding ELISA on FcγRIIIa(V158); relative to MIL62 as 100%
[2] = target: FcγRIIIa(V158) (Sino Biological Inc, 10389-H08C1) (UniProt P08637); assay: Binding ELISA: FcγRIIIa captured on anti-His coated plate; IgG pre-complexed with goat F(ab')2 anti-human-κ (1:2 w/w); HRP anti-human IgG F(ab')2 detection

Sequence of FcγRIIIa(V158) (Sino Biological Inc, 10389-H08C1) (P08637 17-208 F176V): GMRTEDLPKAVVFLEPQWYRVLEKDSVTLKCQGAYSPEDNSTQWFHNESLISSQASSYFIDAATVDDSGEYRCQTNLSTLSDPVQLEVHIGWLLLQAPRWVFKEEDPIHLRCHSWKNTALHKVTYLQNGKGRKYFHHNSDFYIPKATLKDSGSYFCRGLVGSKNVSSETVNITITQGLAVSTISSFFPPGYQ

## RITUXAN (rituximab) (antibody)
[1]
  Relative Bioactivity (%): 26.8%
[2]
  EC50: 0.194 µg/mL
